# Data reported in paper PMC6833008 (Molecules, 2019).
# “And” between values parts separate entries of the source, which are not always exact repeats. Equal values may be shown once. Read-outs that look alike come from different tables or passages of the source. Ends that are not written are not given here.
# B1: WANG-003 (KRWWR-NH2) (peptide)
# peptide: KRWWR-NH2
# notes: in-house synthetic peptide; source: synthetic peptide
# B2: WANG-004 (FRWWR-NH2) (peptide)
# peptide: FRWWR-NH2
# notes: as for B1
# B3: WANG-003 (peptide)
# peptide: KRWWR-NH2
# notes: in-house synthetic peptide; also called KRWWR-NH2; KRWWR; source: synthetic peptide (solid phase, HPLC purified)
# B4: WANG-004 (peptide)
# peptide: FRWWR-NH2
# notes: in-house synthetic peptide; also called FRWWR-NH2; FRWWR; source: synthetic peptide (solid phase, HPLC purified)
# Assays:
# [1] = target: T1, Recombinant human PD-1 protein (Homo sapiens, UniProt Q15116); assay: SPR binding of peptides or PD-L1 to immobilized PD-1 (Biacore X100)
# T1 construct: purchased Abcam (Cambridge, UK)
# T1 sequence (Q15116 25-170 limits assumed): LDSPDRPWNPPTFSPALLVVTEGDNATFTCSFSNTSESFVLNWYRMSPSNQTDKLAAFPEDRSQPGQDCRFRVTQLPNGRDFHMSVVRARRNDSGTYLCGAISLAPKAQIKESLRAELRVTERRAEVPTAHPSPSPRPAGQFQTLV
# Method: Peptides of lyophilized powder were dissolved in sterile milli-Q H2O to a stock concentration of 1 mM for use in surface plasmon resonance (SPR) analysis. […] All synthetic peptides and proteins were equally packaged to avoid repeated freeze–thaw cycles.
# The HBS-EP buffer (10×) was diluted 10-fold with sterile deionized water, filtered through a 0.22-μm membrane filter, and degassed immediately before the experiment as running buffer with a flow rate of 30 μL/min for the instrument system. The purified active PD-1 was diluted by 10 mM sodium acetate solution at pH 4.5, resulting in a protein concentration of 50 μg/mL. Coupling conditions were determined by protein isoelectric points and previous reports. The diluted protein was immobilized on the surface of a CM5 sensor chip via the primary amine group, employing a standard Amine Coupling Kit, and the target immobilization level was 5000 response units (RUs). The flow cell 1 […] any modification was used as a reference to correct the system error. The RU values were collected, and all the binding affinity data was calculated by kinetic models (1:1 interaction) within Biacore X100 Evaluation Software.
# Each concentration was injected into the channel for 120 and 150 s for dissociation. Then, 10 mM glycine 3.0 or glycine 2.5 was utilized to regenerate the sensor chip surface. The equilibrium dissociation constant (KD) was calculated to evaluate the ability of peptides to interact with PD-1.
# [2] = target: T2, Recombinant human PD-1 protein (programmed cell death protein 1) (human, UniProt Q15116 25-170); assay: SPR; Biacore X100, 25 °C; PD-1 amine-coupled to a CM5 chip (target 5000 RU); peptide as analyte in HBS-EP buffer pH 7.4 (2-64 μM WANG-003, 1-16 μM WANG-004, 1.5625-100 μM WANG-005), 30 μL/min, 120 s injection, 150 s dissociation; regeneration 10 mM glycine 3.0 or 2.5; 1:1 kinetic model; three single runs; conditions: both partners purified
# T2 construct: programmed cell death protein 1 (PD-1), human, recombinant, bought from Abcam; the results speak of the immobilised ectodomain; also called hPD-1; CD279; source: bought: Abcam
# T2 sequence (Q15116 25-170): as the sequence (Q15116 25-170 limits assumed) above
# [3] = target: T3, Recombinant human PD-1 protein (programmed cell death protein 1) (human, UniProt Q15116 25-170); assay: SPR; Biacore X100, 25 °C; PD-1 immobilised on a CM5 chip by amine coupling (target 5000 RU); peptides as analytes in HBS-EP (2–64 μM WANG-003, 1–16 μM WANG-004, 1.5625–100 μM WANG-005, 62.5–1000 μM WANG006, 3.125–100 μM WANG007), 120 s injection and 150 s dissociation; 30 μL/min; 1:1 kinetic model; conditions: both partners purified
# T3 construct: Programmed cell death protein 1 (PD-1), human, recombinant, bought from Abcam; the results call the immobilised protein an ectodomain; No catalogue number, limits or tags are printed; The UniProt ID Q15116 is printed for the docking model, not for the bought protein; also called CD279; purified active PD-1; source: bought: Abcam
# T3 sequence (Q15116 25-170): as the sequence (Q15116 25-170 limits assumed) above
Molecule,binding affinity to PD-1 (in words) [1],kon [2],other results
"RRWQWR-NH2 [WANG-005, RRWQWR-NH2]",moderate affinity,,
"KRWWR-NH2 (C-terminus assumed) [WANG-003, KRWWR-NH2]",moderate affinity,,
YVAE-NH2 [WANG-007],did not show binding affinities,,
YVAM-NH2 [WANG-006],did not show binding affinities,,
"FRWWR-NH2 (C-terminus assumed) [WANG-004, FRWWR-NH2]",moderate affinity,,binding affinity to PD-1 (in words) ([1]; listed as FRWWR-NH2): moderate binding affinity
B1,,1230 M⁻¹ s⁻¹ and 967 M⁻¹ s⁻¹ and 1090 M⁻¹ s⁻¹,Kd [2]: 2100 nM and 4610 nM and 3350 nM; koff [2]: 0.00258 s⁻¹ and 0.00446 s⁻¹ and 0.00365 s⁻¹
B2,,2770 M⁻¹ s⁻¹ and 2120 M⁻¹ s⁻¹ and 2760 M⁻¹ s⁻¹,Kd [2]: 1380 nM and 2070 nM and 1450 nM; koff [2]: 0.00383 s⁻¹ and 0.00438 s⁻¹ and 0.00401 s⁻¹
RRWQWR-NH2 [WANG-005 (RRWQWR-NH2)],,658 M⁻¹ s⁻¹ and 436 M⁻¹ s⁻¹ and 494 M⁻¹ s⁻¹,
B3,,,Kd [3]: 3350 ± 1030 nM
B4,,,Kd [3]: 1630 ± 309 nM
